The results in this text go back to publication PMC6760140 (2019).

Like-named read-outs stand apart in the source and are kept apart here.

What all share (test): BLI
The target in experiment [1] is T1, Recombinant His-tagged Pfs25 (Plasmodium falciparum, UniProt P13829 17-196).
The target in experiment [2] is T1, Recombinant His-tagged Pfs25. The source holds these as a separate data set.
Experiment [3] has the same target. This is another data set of the same source.

B1: 2586 Fab (Fab, V domains shown)
VH: EVHLVESGGGLVQPGGSLRLSCAASGFTFSDHYMDWVRQAPGKGLEWVGRIRNKANSYTTDYAASVKGRFTILRDDSKNSLYLQMNSLKTEDAAVYYCVRVGGLGERGDYYYYYMDVWGKGTTVTVSS
VL: SYELTQPPSVSFSPGQTARITCSGDALSKQYTYWYQQKPGQAPVLVIYKDSERPSGIPERFSGSSSGTTVTLTISGVQAEDEADYYCQSADSSGPYQVLFGGGTKLTVL
Take B1: in experiment [1], the dissociation constant Kd came out at 2.5 nM. For the same molecule, in experiment [2], the koff came to 0.00037 s⁻¹.

B2: 2530 Fab (Fab, V domains shown)
VH: QVQLQESGPGLVKPSETLSLTCTVSGDSMSSYYWSWIRQPAGKGLEWIGRISTSGSTNYNPSLKSRVTMSVDTSNNHFSMRLNSVTAADTAVYYCACSGSYSFFDYWGQGTLVTVSS
VL: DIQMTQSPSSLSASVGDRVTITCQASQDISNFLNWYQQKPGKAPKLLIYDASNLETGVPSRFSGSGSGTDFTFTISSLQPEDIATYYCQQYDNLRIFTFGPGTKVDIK
In the case of B2, the equilibrium dissociation constant (Kd) in experiment [1] amounted to 19.2 nM. The koff in experiment [2] amounted to 0.0062 s⁻¹.

B3: 2587 Fab (Fab, V domains shown)
VH: QVQLVQSGAEVRKPGASVKVSCKASGYSFTSYILNWVRQATGQGLEWMGWMNPDSNNTEYAQKFQGRVTITRDTSISTVYMELSGLRSEDTAVYYCARHSFKSNTGFDYWGQGTQVTVSS
VL: SYELSQPPSVSVSAGQTASITCSGDKLGGKYGYWYQQRPGQSPILVIYQDSKRPSGIPERFSGSNSGNTATLTISGTQAMDEADYYCQAWDISTNWVFGGGTKLTVL
With B3, the equilibrium dissociation constant (Kd) in experiment [3] turned out to be 4.6 nM. Besides, the koff in experiment [2] came out at 0.0007 s⁻¹.

B4: 2544 Fab (Fab, V domains shown)
VH: EVQLVESGGGLVQPGGSLRLSCVASGFTFSNYNMNWVRQAPGKGLEWLSYISSSSGTIYYADSVKGRFTISRDNAKNSMYLQMNSLRAEDTAVYYCVRVEYYYGSSGYYYDFDSWGQGTLVTVSS
VL: DIVMTQSPLSLPVTPGEPASISCRSSQSLLHNGYNYLDWYLQKPGQSPQLLIYLGSNRASGVPDRFSGSGSGTDFTLKISRVEAEDVGVYYCMQTLQPFTFGQGTRLEIK
As to B4, the dissociation rate constant (koff) in experiment [2] was found to be 0.00075 s⁻¹.
